{
  "source": "paper PMC9972007",
  "biological_target": "Optineurin (OPTN) (Homo sapiens, UniProt Q96CV9 1-577)",
  "sequence (Q96CV9 whole entry)": "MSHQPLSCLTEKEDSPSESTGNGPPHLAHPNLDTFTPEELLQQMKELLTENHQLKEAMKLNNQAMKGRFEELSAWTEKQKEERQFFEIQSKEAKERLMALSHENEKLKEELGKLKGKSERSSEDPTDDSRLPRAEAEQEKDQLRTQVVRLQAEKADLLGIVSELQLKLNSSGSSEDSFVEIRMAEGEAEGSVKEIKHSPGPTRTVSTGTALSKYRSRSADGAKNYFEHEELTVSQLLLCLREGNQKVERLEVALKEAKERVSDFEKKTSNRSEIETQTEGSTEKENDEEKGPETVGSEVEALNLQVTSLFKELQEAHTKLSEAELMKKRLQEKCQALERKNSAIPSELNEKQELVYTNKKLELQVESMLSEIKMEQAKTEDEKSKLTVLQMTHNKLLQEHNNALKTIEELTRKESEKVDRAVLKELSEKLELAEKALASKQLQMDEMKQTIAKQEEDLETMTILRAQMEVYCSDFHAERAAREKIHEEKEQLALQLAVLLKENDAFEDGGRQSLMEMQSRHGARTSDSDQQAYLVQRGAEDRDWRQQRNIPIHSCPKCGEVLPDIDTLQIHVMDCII",
  "assay": "tryptophan fluorescence quenching titration",
  "note": "Where “and” joins values, the source holds several entries; their conditions need not be identical. Equal entries are not always repeated.",
  "data": [
    {"binder": "UGUGUGUGUGUGUGUGUGUGUGUG (ssRNA)", "note": "[UG-repeat RNA 24-mer]", "values": [
      {"measurement": "Kd", "result": "4.61 µM and 4.49 µM"}
    ]}
  ]
}
